# The DeepSol protein solubility set
# Test: soluble on expression in E. coli; label from the status in PepcDB or PDB records
row,Sequence,soluble on expression in E. coli
1,MRDVHSISAMNLRDVLSIPEVKQGQVIGKKIPATLGEDGMNVLGEPIKAKPGREFVLRPGKNSTVDEANGTLVAAVDGQMSVDKRTIHVYPVYEVPGDLTMKHGNISFIGNVIIRGHVPDGFVVKAGGDIRVFGTVEGATLEAGGSIFVGAGIVGQNRGCIRAEGGLHTTFINQAKVEVGGDIEVVQSILHSTCTAGGKIICTRGKGNIVGGALSAEDHIYAKEIGNSMHTKTSLYIGAKEKWVTKEKQLAKEYKTTEEELKKLSLLLQKFQELEKENGLTANGRVQRLRVKNTLVQVKEKHEQIKEQLEDVQENLTLNQAGSIVVEQTLYPNVSAHFGKYRRKIVSNHSNVKLSLVDQEIQLSSRLEHHHHHH,not soluble
2,MREIIFLVEEAEEGGFVARALGEAIFTEGETWEELKEMVRDAVRCHFGEEAPPIIRLHFVREEVLTP,soluble
3,MREWKSQDAWKQHSLRLCFGVWPGTEFLHRPRAVHRRSGVVCSQMQTEDSHPETPQVPKESLQEEKDSSPATDASFIQSQDGKTVFLDRRTERRIQRGFVLTERGPRSIWKPAGTSSQRNERVPRRAAARGGAGPPDTTPQLATVRVLVLGANHVAQRLAELLSSHSRVCGCYFVSETTDEAAIESMKKYAYALPLRSALNDDEVVRVAEWVLADYVFLVPTGETHDDGVSLKDKERLERTLAQNRVTFMDENLTGLLLENPSLIDALFRARDSLEA,not soluble
4,MREYRITAEEGHPRIDVFLAGRPEIGLSRSRIQALIDEGQVTLNGAMPKARQAVNPGDVIVVRVPDPEPMELVPEDIPLDIVYEDEDILVVNKQRGLVVHPAAGHWTGTLVHALLDKVDDLEGIGGELRPGIVHRLDKDTTGLLVVAKSERAMASLQEQIRDHMVQRVYWALVHGNSMPDTGRIEAPIGRHPRDRKRMAVNPKTGRDAVTYFRVLERYRGYALLECRLETGRTHQIRVHLSFIGHPVVGDPLYGPRKPHLGMPPQALHARQLSFRHPASGEWMEFTVDPPADMMAVVQRLREEA,soluble
5,MRFEDIGISKVDKVCLVDRLGCQENLVGTVHVTTTHIIFRAENGSKELWLATGLISSVEKGTLTAAGCMLVIRCKHFQVITLLISRDKSCQDLYETLQRAAKPVSVNVTELLAFENREPVEDVRGWRRLDWNSEMTRQGITKSQWTESNINEGYTICDTYPNKLWFPTAASTSVLLGSCKFRSRGRLPVLTYFHQQTEAALCRCAQPLTGFSARCVEDEKLMELVGKANTNSDNLFLVDTRPRVNAMVNKVQGKGFEDERNYSNMRFHFFDIENIHVMRASQARLLDAVTKCRDVTEYWKTLEASGWLKHVRSVVECSLFLAESISRGTSCVVHCSDGWDRTSQVVALCQLLLDPYYRTIHGFQVLIEKDWLGFGHKFDDRCGHVGALNDEAGKEVSPIFTQWLDCIWQIMQQKPRAFQFNERYLIEMHEHVYSCQFGTFIGNCDKDRRDLNLSKRTKSLWTWMDARHDDYMNPFYSPTAHVALLDLDTRAARFTVWTAMYNRFDNGLQPRERLEDLTMAAMEHVGVLESHVAQLRTRLAELKTQQNQQITSTNTPTNMVDSGMSSATDDLKNLSLSHPLDPLSSTLPILERATSQESGVMDSSLYYPDEALTKYSLKWQPLRGADRCSNPACRGEFSSTIERRIHCHLCGMIFCRRCLKVSADERERVCDKCKTD,not soluble
6,MRFYIKTFGCQMNENDSEAMAGLLVKEGFTPASSPEEADVVIINTCAVRRKSEEKAYSELGQVLKLKKKKKIVVGVAGCVAEKEREKFLEKGADFVLGTRAVPRVTEAVKKALEGEKVALFEDHLDEYTHELPRIRTSRHHAWVTIIHGCDRFCTYCIVPYTRGRERSRPMADILEEVKKLAEQGYREVTFLGQNVDAYGKDLKDGSSLAKLLEEASKIEGIERIWFLTSYPTDFSDELIEVIAKNPKVAKSVHLPVQSGSNRILKLMNRRYTKEEYLALLEKIRSKVPEVAISSDIIVGFPTETEEDFMETVDLVEKAQFERLNLAIYSPREGTVAWKYYKDDVPYEEKVRRMQFLMNLQKRINRKLNERYRGKTVRIIVEAQAKNGLFYGRDIRNKIIAFEGEDWMIGRFADVKVEKITAGPLYGKVVWVEKTPSPVSSSE,soluble
7,MRGENTMTPVFELKNVNYYYDHKKVLENINIKINKGEFLAIVGPNGAGKSTLLKLILGLLPLQSGEIFVEGIDFKNKKTSIKLSYVSQKANAFNSGFPASVKEVVLSGLTKTKRLFQTFNSKDNEKVIKVLERLNISDLIHKNIAELSGGQQQRVMIARALISEPAVLVLDEPTNGIDAKHVSEFYNTLDQLKQEGITIILVTHDIGVVADTATEVACLNKHLHFHGTTDEFKSLDEVEISKIYGHPVRFVDHQHNRECCN,not soluble
8,MRGFLMFTSGPFDIDFVVLWVDGSDEKWLQKRAIYSSTKQQNNAVRFRDYGIFKYWFRAVAKYAPWVHHVYLVTDEQIPNWLSIQNSKVSVIDHKSIMPEDALPTFNSSAIELNIANIPGLSEHFVYFNDDMFLNRQVTPMDFFSEDGLPKDSAVQNAIMPVEDFDHMTANNVMLINQNFNKYQVLRRHPFRFFNFRYGFLNVLSICLLPWPRFTRFQDPHVPISFRKSVFEKVLNLHRDAWNETSHNRFRNRNDNTIWLIRYYQLVTAQFNPRTPFVGKKYNIGEMKKIVNDINTGKHKMICINDQNVSMAEFDNLTKQLRSTFRSKLPQKSEFEKMAGDPLEHHHHHH,not soluble
9,MRGKRVVLPDKDHQACGLFGVIDRSGRRFSGEMAINAMINMKVRGNGLGGGFAAYGIYPEYKDYYALHVMFQDWDMEAKHRVDEFLDANFDVVYAEEIPVNPEANVASPPLFWRYFVSPNKKGDEKKLSDDDYVVKKVMEINTKINNAYVVSSGKDMGVFKGVGFPEDIAEYFMLAEEYKGYMWTAHSRFPTNTPGWWGGAHPFCILDWTVVHNGEISSYGTNKRYLEMFGYYCTLLTDTEVMAYAVDLLMRKQGLPIEIVSKIFAPPMWDHIDIMDEKKKKFYTALRMNYGPLLINGPWTIVVARHGEMFGITDRIRLRPITSGEKGDLLFVSSEESAIRAVCPDLDRVYTPMGGEPVIGRLKSREKELAKQLSEVE,not soluble
10,MRGKVYLVGAGFGGPEHLTLKALRVLEVAEVVLHDRLVHPGVLALAKGELVPVGKEGYGGKTPQEAITARLIALAREGRVVARLKGGDPMVFGRGGEEALALRRAGIPFEVVPGVTSAVGALSALGLPLTHRGLARSFAVATGHDPALPLPRADTLVLLMPLHTLGGLKERLLERFPPETPLALLARVGWPGEAVRLGRVEDLPGLGEGLPSPALLVVGKVVGLYGELLPKDHGL,soluble
11,MRGSHHHHHHGMASMSVSTASTEMSVRKIAAHMKSNPNAKVIFMVGAGISTSCGIPDFRSPGTGLYHNLARLKLPYPEAVFDVDFFQSDPLPFYTLAKELYPGNFRPSKFHYLLKLFQDKDVLKRVYTQNIDTLERQAGVKDDLIIEAHGSFAHCHCIGCGKVYPPQVFKSKLAEHPIKDFVKCDVCGELVKPAIVFFGEDLPDSFSETWLNDSEWLREKITTSGKHPQQPLVIVVGTSLAVYPFASLPEEIPRKVKRVLCNLETVGDFKANKRPTDLIVHQYSDEFAEQLVEELGWQEDFEKILTAQ,soluble
12,MRGSHHHHHHGMASMTGGNNMGRDLYDDDDKDPGRRMMHNSNADDAALTTDVVVVGGGPVGLMLAGELRAGGVGALVLEKLVEPVGHDRAGALHIRTVETLDLRGLLDRFLEGTQVAKGLPFAGIFTQGLDFGLVDTRHPYTGLVPQSRTEALLAEHAREAGAEIPRGHEVTRLRQDAEAVEVTVAGPSGPYPVRARYGVGCDGGRSTVRRLAADRFPGTEATVRALIGYVTTPEREVPRRWERTPDGILVLAFPPEGGLGPGWSSSSTGHSPAADEGPVTLEDLGAAVARVRGTPLTLTEPVSWLSRFGDASRQAKRYRSGRVLLAGDAAHVHFPIGGQGLNTGLQDAVNLGWKLAARVRGWGSEELLDTYHDERHPVAERVLLNTRAQLALMRPDEQHTTPLRGFVEELLGTDEVNRYFTGMITGTDVRYATFAPAASARPHPWPGRFAGGLVLSRPSGEPVPVAELLRSARPLLLDLAGRADLREATRPWSDRVSVVAGEATVEPPAQALLVRPDGYVAWAGSPAATADELRASLARWFGPPANREPVGHQERAGRRGRPLSALKPE,soluble
13,MRGSHHHHHHGMASNEFPVVLVINCGSSSIKFSVLDVATCDVLMAGIADGMNTENAFLSINGDKPINLAHSNYEDALKAIAFELEKRDLTDSVALIGHRIAHGGELFTQSVIITDEIIDNIRRVSPLAPLHNYANLSGIDAARHLFPAVRQVAVFDTSFHQTLAPEAYLYGLPWEYFSSLGVRRYGFHGTSHRYVSRRAYELLDLDEKDSGLIVAHLGNGASICAVRNGQSVDTSMGMTPLEGLMMGTRSGDVDFGAMAWIAKETGQTLSDLERVVNKESGLLGISGLSSDLRVLEKAWHEGHERARLAIKTFVHRIARHIAGHAASLHRLDGIIFTGGIGENSVLIRQLVIEHLGVLGLTLDVEMNKQPNSHGERIISANPSQVICAVIPTNEEKMIALDAIHLGNVKAPVEFA,soluble
14,MRGSHHHHHHTDPALRASKVTPQPKIGFVSLGCPKNLVDSERILTELRTEGYDVVPSYDDADMVIVNTCGFIDSAVQESLEAIGEALNENGKVIVTGCLGAKEDQIREVHPKVLEITGPHSYEQVLEHVHHYVPKPKHNPFLSLVPEQGVKLTPRHYAYLKISEGCNHRCTFCIIPSMRGDLVSRPIGEVLSEAKRLVDAGVKEILVISQDTSAYGVDVKHRTGFHNGEPVKTSMVSLCEQLSKLGIWTRLHYVYPYPHVDDVIPLMAEGKILPYLDIPLQHASPRILKLMKRPGSVDRQLARIKQWREICPELTLRSTFIVGFPGETEEDFQMLLDFLKEARLDRVGCFKYSPVEGADANALPDQVPEEVKEERWNRFMQLQQQISAERLQEKVGREILVIIDEVDEEGAIGRSMADAPEIDGAVYLNGETNVKPGDILRVKVEHADEYDLWGSRVGLCGR,soluble
15,MRHLSLLLCCLLAWPARAETLVEIPTRPGVALRFLLLEPPGPPRANLILLAGGEGLLKLSAEGELGAGRGNFLVRTRQGWADMGFRVAVVDAPSDMPRGLLGDFRERAEHAADIAAVSDYLRRGAALPVWLAGTSRGTTSAAAVALNRPDAADGLLLTSSIDAGRGSLAGLPLERLAVPVLMIQHRRDECRASRPGNLGPVLDRLRADAPRELMLLDGGGSEGDPCQPWAWHGYNGIERRVLGLAGAWMLAHGRHLEHHHHHH,not soluble
16,MRHNIFYNRREFQMIDNFMQVLKLIKEKRTNNVVKKSDWDKGDLYKTLVHDKLPKQLKVHIKEDKYSVVGKVATGNYSKVPWISIYDENITKETKDGYYLVYLFHPEGEGIYLSLNQGWSKISDMFPRDKNAAKQRALTLSSELNKYITSNEFNTGRFYYAENKDSSYDLKNDYPSGYSHGSIRFKYYDLNEGFTEEDMLEDLKKFLELFNELASKVTKTSYDSLVNSIDEIQEDSEIEEIRTAQKDKTLKEVEAPKGIIPKYKKGVSKTTKNDSEIEKSNKENKLTGKVGEKLALNYFNELIDNKIDEDKKEQFRNILNDNPGSQHGHGYDLVAFDPTNTDKAVEKFIEIKTSTSSSIEEPFFMSLNEMFAMKEYKQKYLILRIFNVSGKEPQFYFIDPYANYSEFKDVDDLIDKVFNVEAIQYKVFGEKLEHHHHHH,not soluble
17,MRHPDFPVPPRIDAFASWEASLRLAFARRGGRTVLASCRHRGPLRVQKALYPEGEGVCHVVLLHPPAGIAGGDVLDIGIELGAEAHAVLTTPGATKWYKSPGRTAMQQVAIRLDAGARLDWLPQENIVFNQARPVIDLTLDLAPGAAAIGWDITMLGRHAAGESWQEGRIAMHTRLRCEGQPLWIESTAFDAQSPVLGATTGMAGFHVVGTLWAVGAGATEALAETLAEQLPYRDDLRAGVTCLTQDAPGRPSVLLLRVLARRPEDARALLSQTWLALREPIHGVAGRPLRLWATLEHHHHHH,not soluble
